The text below walks through data of patent US20250325468A1 (MEDYTOX, published 2025).

The target of this assay is SNARE complex including SNAP-25, syntaxin and VAMP2 (endogenous, in PC12 cells) (rat (PC12 cells, derived from rats), UniProt P60881 1-206; P32851 1-288; P63045 2-116). In words: cell-based or functional assay.
Chain of SNARE complex including SNAP-25, syntaxin and VAMP2 (endogenous, in PC12 cells) (P60881 whole entry, chain 1 of 3): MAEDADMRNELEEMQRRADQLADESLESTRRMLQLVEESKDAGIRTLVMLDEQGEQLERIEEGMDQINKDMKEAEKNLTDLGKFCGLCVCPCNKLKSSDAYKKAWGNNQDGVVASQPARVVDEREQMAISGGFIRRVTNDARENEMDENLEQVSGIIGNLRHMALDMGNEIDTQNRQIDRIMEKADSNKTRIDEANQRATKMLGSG
Chain of SNARE complex including SNAP-25, syntaxin and VAMP2 (endogenous, in PC12 cells) (P32851 whole entry, chain 2 of 3): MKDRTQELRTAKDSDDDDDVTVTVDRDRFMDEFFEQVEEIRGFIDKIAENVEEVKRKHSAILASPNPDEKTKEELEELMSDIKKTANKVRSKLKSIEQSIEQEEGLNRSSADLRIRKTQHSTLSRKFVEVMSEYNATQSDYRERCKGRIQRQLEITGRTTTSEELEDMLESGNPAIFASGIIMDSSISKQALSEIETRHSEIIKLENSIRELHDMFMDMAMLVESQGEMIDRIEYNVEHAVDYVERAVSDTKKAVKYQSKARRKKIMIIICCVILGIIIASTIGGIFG
Chain of SNARE complex including SNAP-25, syntaxin and VAMP2 (endogenous, in PC12 cells) (P63045 2-116, chain 3 of 3): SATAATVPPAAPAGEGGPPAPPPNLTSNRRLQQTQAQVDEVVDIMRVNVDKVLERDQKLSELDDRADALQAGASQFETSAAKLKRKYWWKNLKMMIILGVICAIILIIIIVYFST

As to RRLQQTQAQVDEVVDIM [P4 peptide, h-VAMP2 (30-46 aa)], the “neurotransmitter (norepinephrine) secretion rate in PC12 cells compared to an untreated group, peptide at 20 µM” value worked out at 75%. For the molecule RRWRRWNRFNRRRCRRRLQQTQAQVDEVV, the “neurotransmitter (norepinephrine) secretion rate in PC12 cells compared to an untreated group, peptide at 20 µM” value is 56%.
